Reference: PMC3626232 (The Journal of biological chemistry, 2000)

B1: XMcm(3+7) hetero-dimer (complex)
chain 1: MDYGGGFEDHELREAQREYLDFLDDDQDQGLYHGKVRDMIGSNEHRLIVNLNDVRRKNDKRANLMLNDAFAETIAFQRALKDLVASIDATYAKQFEEFSVGFEGSFGSKHVSPRTLTASLLGSLVCVEGIVTKCSLVRPKVMRSVHYCPATKKTLERKYSDLTSLEAFPSSSIYPTKDEENNPLETEYGLSTYKDHQTLSIQEMPEKAPAGQLPRSVDIIADDDLVDKCKPGDRVQIVGIYRCLPSKQGGFTSGTFRTILLANNIKLMSKEIAPTFSADDVAKIKKFCKAHSKDIFEHLSKSLAPSIHGHEYIKKAILCMLLGGNEKVLENGTRIRGDINVLLIGDPSVAKSQLLRYVLHTAPRAIPTTGRGSSGVGLTAAVTTDQETGERRLEAGAMVLADRGVVCIDEFDKMSDMDRTAIHEVMEQGRVTIAKAGIQARLNARCSVLAAANPVYGRYDQYRTPMENIGLQDSLLSRFDLLFIVLDKMDADNDQEIADHVLRMHRYRTPGEQDGYALPLGCSVEIFATDDPNASDVTDQELQIYEKHDNLLHGPRKNKSKIVSMQFIRKYIHVAKLIKPVLTSEAADYISQEYAKIRNHDQINNDSARTMPVTARALETMIRLSTAHAKVRMSKTIERQDAETALELVQFAYFKKVLAKEKKKTDKDLHDENLSQDTLSQESVRKSSRRAGKIADSQDDSMDPYSFSEQDSSLNENLSQSLRPQRKKAESQDGKRSLSQNRTKEFKAALLKAFKSSRSQSVAVSQLLELINKGNPEPFERSEVKEALDNMQNDNQVMVSEDVVFLI
chain 2: MPRDYQTEKEKCKTFLQEFYKDDEIGKKHFKYGVQLANIAHREQVALYIDLDDLAEEDPELVDAICENTRRYTNLFADAVQELLPQYKEREVVHKDALDVYIEHRLMMEQRGRDPNEMRDSQNQYPPELMRRFELYFKAPSSSKARVVRDVKADSIGKLVNIRGIVTRVTEVKPMMVVATYTCDQCGAETYQPIQSPTFMPLIMCPSRECQTNRSGGRLYLQTRGSKFIKFQELKIQEHSDQVPVGNIPRCMSVYVRGENTRLAQPGDHVGITGVFLPMLRTGFRQVVQGLLSETYLECHRLVKMNKSEDDELGTEELSEEELRQITEEDFYEKLAASIAPEIYGHEDVKKALLLLLVGGVDNSPRGMKIRGNINICLMGDPGVAKSQLLSYIDRLAPRSQYTTGRGSSGVGLTAAVMKDPVTGEMTLEGGALVLADQGVCCIDEFDKMMDTDRTAIHEVMEQQTISIAKAGIMTTLNARCSILAAANPAYGRYNPKKTVEQNIQLPAALLSRFDVLWLIQDKPDRDNDLRLAQHITYVHQHSKQPPSQFQPLDMKLMRRYITMCKRKQPAIPEALADYLTAAYVEMRKEARTNKDMTFTSARTLLSVLRLSTALARLRLEDVVEKEDVNEAMRLMEMSKDSLLGDKGHTSRTQRPADVIFSTIREMVPEKGARSVKYSEAEQRCVSKGFTPAQFEAALEEYEELNVWLVNQARTKITFV
B2: XMcm2 (natural protein, UniProt P55861 1-886, looked up)
chain: MADSSESFNIATSPRAGSRRDALTSSPGRDLPPFEDESEGMFGDGVVPEEEEDGEELIGDAMERDYRPISELDRYEVEGLDDEEDVEDLTASQREAAEQSMRMRDREMGRELGRMRRGLLYDSDEEEEDRPARKRRMAERAAEGAPEEDEEMIESIENLEDMKGHTVREWVSMAATRLEIYHRFKNFLRTHVDEHGHNVFKEKISDMCKENKESLPVNYEDLAAREHVLAYFLPEAPAEMLKIFDEAAKEVVLVMYPKYDRIAREIHVRISHLPLVEELRSLRQLHLNQLIRTSGVVTCCTGVLPQLSMVKYNCNKCNFILGPFFQSQNQEVRPGSCPECQSFGPFEINMEETVYQNYQRITIQESPGKVAAGRLPRSKDAILLADLVDSCKPGDEIELTGIYHNNYDGSLNTANGFPVFATVILANHITKKDDKVAVGELTDEDVKAIVALSKDERIGERIFASIAPSIYGHEDIKRGLALALFGGEAKNPGGKHKVRGDINVLLCGDPGTAKSQFLKYVEKVASRAVFTTGQGASAVGLTAYVQRHPVTKEWTLEAGALVLADRGVCLIDEFDKMNDQDRTSIHEAMEQQSISISKAGIVTSLQARCTVIAASNPIGGRYDPSLTFSENVDLTEPIVSRFDILCVVRDTVDPVQDEMLARFVVSSHIKHHPSSKDIANGDAAEFALPNTFGVEALPQEVLKKYIMYAKEKIRPKLNQMDQDKVAKMYSDLRKESMATGSIPITVRHIESMIRMAEAHARMHLRDYVVEDDVNMAIRVMLESFIDTQKFSVMRSMRKTFARYLAFRRDNNELLLFVLKQLIAEQVTYQRNRYGAQQDTIEVPEKDLVDKARQINIHNLSAFYDSDLFKMNKFTHDVKKKLIIQQF

Experiments:
XMcm(2+4+6+7) tetramer = XMcm(2+4+6+7) tetramer (Xenopus (endogenous in Xenopus egg …, UniProt P55861 1-886; P30664 1-863; Q5FWY4 1-821; Q91876 1-720); assay: SEC
SEC = target: the molecule itself; assay: SEC

XMcm(2+4+6+7) tetramer (Xenopus, sequence (P30664 whole entry, chain 2 of 2): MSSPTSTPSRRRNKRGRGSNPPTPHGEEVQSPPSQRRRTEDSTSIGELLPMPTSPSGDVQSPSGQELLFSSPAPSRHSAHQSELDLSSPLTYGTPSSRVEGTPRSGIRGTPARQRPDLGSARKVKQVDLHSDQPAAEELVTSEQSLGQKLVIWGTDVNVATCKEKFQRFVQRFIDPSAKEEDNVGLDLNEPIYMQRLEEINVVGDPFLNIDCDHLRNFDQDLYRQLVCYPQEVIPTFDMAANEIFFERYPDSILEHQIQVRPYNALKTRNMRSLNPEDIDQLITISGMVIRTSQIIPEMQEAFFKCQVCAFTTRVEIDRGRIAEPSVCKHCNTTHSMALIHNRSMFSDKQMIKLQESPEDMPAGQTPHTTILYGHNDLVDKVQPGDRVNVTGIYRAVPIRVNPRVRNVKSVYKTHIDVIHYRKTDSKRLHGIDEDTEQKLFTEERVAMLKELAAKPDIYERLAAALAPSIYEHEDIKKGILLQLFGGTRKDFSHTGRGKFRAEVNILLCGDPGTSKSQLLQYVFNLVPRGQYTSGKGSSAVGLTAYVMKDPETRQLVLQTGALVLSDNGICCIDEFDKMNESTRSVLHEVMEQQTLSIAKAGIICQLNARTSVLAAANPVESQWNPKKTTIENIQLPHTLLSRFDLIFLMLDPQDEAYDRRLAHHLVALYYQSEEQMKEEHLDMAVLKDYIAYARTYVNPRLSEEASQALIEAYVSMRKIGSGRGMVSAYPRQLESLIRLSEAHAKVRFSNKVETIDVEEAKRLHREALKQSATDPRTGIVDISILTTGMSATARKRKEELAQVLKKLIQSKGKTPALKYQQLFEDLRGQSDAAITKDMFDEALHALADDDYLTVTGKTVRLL
XMcm(2+4+6+7) tetramer (Xenopus, sequence (Q5FWY4 whole entry, chain 3 of 2): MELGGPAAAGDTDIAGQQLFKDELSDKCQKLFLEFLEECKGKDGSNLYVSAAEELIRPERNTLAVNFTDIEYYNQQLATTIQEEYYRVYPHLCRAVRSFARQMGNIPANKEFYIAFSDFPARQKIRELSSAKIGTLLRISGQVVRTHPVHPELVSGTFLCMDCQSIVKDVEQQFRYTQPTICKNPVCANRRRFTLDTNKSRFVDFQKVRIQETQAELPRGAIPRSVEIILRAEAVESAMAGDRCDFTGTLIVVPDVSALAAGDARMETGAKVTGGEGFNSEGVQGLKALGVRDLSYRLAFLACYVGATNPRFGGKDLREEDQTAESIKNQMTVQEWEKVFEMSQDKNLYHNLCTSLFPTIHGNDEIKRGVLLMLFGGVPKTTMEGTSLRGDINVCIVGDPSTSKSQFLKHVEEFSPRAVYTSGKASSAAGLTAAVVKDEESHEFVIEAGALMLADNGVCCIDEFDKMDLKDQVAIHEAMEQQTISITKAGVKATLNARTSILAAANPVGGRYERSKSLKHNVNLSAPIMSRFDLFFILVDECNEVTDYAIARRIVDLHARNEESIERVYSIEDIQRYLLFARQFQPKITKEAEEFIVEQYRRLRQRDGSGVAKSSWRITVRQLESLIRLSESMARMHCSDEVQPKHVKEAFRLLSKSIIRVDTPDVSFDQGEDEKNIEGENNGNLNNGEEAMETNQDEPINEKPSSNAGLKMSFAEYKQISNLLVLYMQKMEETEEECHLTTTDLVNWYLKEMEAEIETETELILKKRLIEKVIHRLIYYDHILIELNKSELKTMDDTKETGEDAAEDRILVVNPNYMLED

Binder | binding result (XMcm(2+4+6+7) tetramer) | stoichiometry N (SEC)
B1 | binds | 
B2 |  | 2
